Results taken from the nanobody polyreactivity screen of Harvey et al. (2022).

experiment: yeast display, Sf9 membrane polyspecificity reagent, FACS + sequencing; frameworks hold sequencing errors
Outline: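 Nanobodies from a synthetic yeast display library (Saccharomyces cerevisiae BJ5465), induced 36–48 hours with galactose, were stained 1 hour at 4 °C with 10% biotinylated, detergent-solubilized Sf9 membrane reagent, enriched on streptavidin microbeads, then FACS-sorted. Anti-HA (expression) and streptavidin (reagent binding) fluorescence set low and high (top ~1%) gates. Polyreactivity labels come from the gate of origin. Genes were colony-PCR amplified, MiSeq 2 × 250 sequenced and filtered by CDR length.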

Sequence	polyreactivity (PSR sort gate)
QVQLVESGGGLVQAGGSLRLSCADSGSTFFRYAMGWYRQAPGKERELVAAISKSGASTYYADSVKGRFTISRDNAKNTVYLQMNSLKPEDTAVYYCNADVKKSSAREWQYGYDYWGQGTQVTVSS	low polyreactivity
QVQLVESGGGLVQAGGSLRLSCADSGSTFLYYGMGWYRQAPGKERELVAGIDGTGSSTYYADSVKGRFTISRDNAKNTVYLQMNSLKPEDTAVYYCAKRYPRYRSRYYYWGQGTQVTVSS	low polyreactivity
QVQLVESGGGLVQAGGSLRLSCADSGSTFPGYTMGWYRQAPGKERELVAAIDGSAGDTYYADSVKGRVTISRDNAKNTVYLQMNSLKPEDTEVYYCAADGPYDYSPWLMYYWGQGTQVTVSS	low polyreactivity
QVQLVESGGGLVQAGGSLRLSCADSGSTFRFNAMGWYRQAPGKERDLVAAISQSGGSTRYADSVKGRFTISRDNAKNTVYLQMNSLKPEDTAVYYCAARRRWLPGYAWQVAYDSWGQGTQVTVSS	high polyreactivity
QVQLVESGGGLVQAGGSLRLSCADSGSTFTRYAIGWYRQAPGKEMEFVAAISWSGGITYYADSVKGRFTISRDNAKNTVYFQMKSLKPEDTAVYYCAAKRRYTRGGYGVDYWGQGTQVTVSS	high polyreactivity
QVQLVESGGGLVQAGGSLRLSCADSGSTFVLNAMGWYRQAPGKERELVAAISRCGASTYYADSVKGRFTISRDNAKNTVYLQMNSLKPEDTAVYYCNASGYGPGVVIYLVLYDYWGQGTQVTVSS	low polyreactivity
QVQLVESGGGLVQAGGSLRLSCADSGSTFWFYAMGWYRQAPGKERELVAVISNSGSTYYADSVKGRYTISRDNAKNTVSLQMNSLKPEDTAVYYCNKDGGGDSYWYVYWGQGTQVTVSS	low polyreactivity
QVQLVESGGGLVQAGGSLRLSCADSGVIFVGYAMGGYRQAHGKERELVASIDGRVGSTYYADSVKGRFTISRDNAKITVYLQMNSLKPEDTAVYYCAAGGRAVRIYWGYYRTSYDYWGQGTQVTVSS	low polyreactivity
QVQLVESGGGLVQAGGSLRLSCADSGYIFYPYTMGWYRQAPGKEMELDAAITWSGSTYYADSVKGRFTISRDNAKNTVYLQMNSLKPEDTAVYYCAADFDSYDSYTYLQYDYWGQGTQVTVSS	low polyreactivity
QVQLVESGGGLVQAGGSLRLSCADTGLILVLNAMGCYRQAPGKERELVADITSGGSTYYADSVKGRFTISRDNAKNSVYLQMNSLKPEDTAVYYCATDQGGYYENDYWGQGTKVTVSS	low polyreactivity
QVQLVESGGGLVQAGGSLRLSCAESGLILAGYTMGWYRQAPGKESELVAAISDRGGSTYYADSVKGRFTISRDNAKNTVYLQMNSLKPEDTAVYYCNAFVYSYALTPSYAGDYWGQGTQVTVSS	low polyreactivity
QVQLVESGGGLVQAGGSLRLSCAGSGFIFAQNTMGWYRQAPGKERELVAAITRRGGSTYYADSVKGRFTISRDNAKTTVYLQMNSLKPEDTAVYYCARATVGAWRKMYSWGQGTQVTVSS	high polyreactivity
QVQLVESGGGLVQAGGSLRLSCAGSGGIFGSNAMGWYREAPGKERALVAAISWRGGSTYYADSVKGRFTISRDNAKNSVYLQMNSLKPEDTAGYYCAARYRWGYSTSYSYRFHYWGQGTQVTVSS	high polyreactivity
QVQLVESGGGLVQAGGSLRLSCAGSGGPFLDYIGWYRQAPGKEMVLVAAITFSGGSTYYADSVKGRLTISRENAKNTVYVQMNSLKPDDTAVYFCAAGWYDWPKYLLGGYTYYLYDSWRQGTQVTVSS	low polyreactivity
QVQLVESGGGLVQAGGSLRLSCAGSGSTFHPYAMGWYRQAPGKVRELVAAITWGGGSTYYADSVKGRITISRDNAKNTVYLQMNSLKPEDTAVYYCNAYTLYWPDYDYWGQGTQVTVSS	low polyreactivity
QVQLVESGGGLVQAGGSLRLSCAGSGSTFLYYAMGWYRQAPGKERELVAVITYSDGGTYYADSVKGRFTISRDNAKNTVYLEMNSLKPEDTAVYYCAKDYRAYAGHYTWTWHEYGYWGQGTQVTVSS	low polyreactivity
QVQLVESGGGLVQAGGSLRLSCAGSGSTSYNDMGWYRQAPGKEREMGASITSSGDDTYYADSVKGRFTISRDNAKNTVYLQMNSLKPEDTAVYYCAAEDYHRHVGSDFVIDYDYWGQGTQVTVSS	low polyreactivity
QVQLVESGGGLVQAGGSLRLSCAGSGYIFAYNTIGWYRQAPGKERELVAAISRSGGSTYYPDSVKGRFTISRDNAKNTVYLQMNSLKPEDTAVYYCAARYSGYRVGQRSFCYWGQGTQVTVSS	high polyreactivity
QVQLVESGGGLVQAGGSLRLSCAHSGSSFYRYSMRWYIQAPGKERELDAAISTSGGRTYYADSVKGRFSISRDNAKNTVYLQMNSLKPEDTAVYYCAADQYRYYRSTYDYWGQGTQVTVSS	high polyreactivity
QVQLVESGGGLVQAGGSLRLSCAPSGFIFQANAMGWYRQAPGKERELLAAIDDGDSTYADSVKGRFTISRDNAKNTVYLQLNSLKPEDTAVYFCATRRNRSYDYWGQGTQVTVSS	low polyreactivity
QVQLVESGGGLVQAGGSLRLSCAPSGFIYHWNAMGWYRQAPGKERELLAAITWRGTNTYYADSVKGRFTISRDNAKNTVYLQMNRLKPEDTAVYYCAARYVTYYGTFDYWGLGTQVTVSS	low polyreactivity
